Measured values taken from article PMC5410337, “Anti-cancer effect of novel PAK1 inhibitor via induction of PUMA-mediated cell death and p21-mediated cell cycle arrest” (Oncotarget, 2017).

Target: T1, recombinant full-length human PUMA (residue 1-193) (human, UniProt Q9BXH1 1-193)
T1 construct: Expressed as a GST fusion from pGEX-TEV (TEV site present); also called PUMA protein
T1 sequence (looked up): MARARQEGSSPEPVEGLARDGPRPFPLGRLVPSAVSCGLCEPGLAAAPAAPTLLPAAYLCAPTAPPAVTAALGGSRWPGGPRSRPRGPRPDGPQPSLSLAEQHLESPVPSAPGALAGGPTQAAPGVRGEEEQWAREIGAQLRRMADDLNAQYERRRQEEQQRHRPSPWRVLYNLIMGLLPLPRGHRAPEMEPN
Assay: ELISA; PAK1 recombinant protein immobilised on a 96-well plate with 0.5% paraformaldehyde; chemicals (25 or 50 uM) added, then PUMA protein, 2 hr; detected with anti-PUMA antibody and anti-rabbit IgG-HRP, absorbance at 450 nm
Conditions: both partners purified

binding result: binds
B1: GST-PAK1 N-terminal domain (residues 70-149) (domain or fragment, human, UniProt Q13153 70-149, looked up)
chain: KERPEISLPSDFEHTIHVGFDAVTGEFTGMPEQWARLLQTSNITKSEQKKNPQAVLDVLEFYNSKKTSNSQKYMSFTDKS
notes: Cloned in pGEX-TEV (pGEX-4T1 with a TEV site); pGEX vectors put GST at the N-terminus (surmised); GST is kept on agarose beads in the pull-downs; the discussion says the N-terminal region of PAK1 was used for the screening; also called PAK1 recombinant protein; N-terminal region of PAK1
